Assay results: US20190269784A1, “Selective Inhibitors of the Polo-Like Kinase 1 Polo-Box Domain” (UNIVERSITY OF SOUTH CAROLINA, priority 2018, published 2019)
Square brackets hold non-standard residues; d marks the D form. Ends that are not written are not given here. Peptide text beside a SMILES is read from it. * marks the point of attachment. Benzoyl(4-octyl) = CCCCCCCCc1ccc(C(=O)*)cc1; pT = C[C@@H](OP(=O)(O)O)[C@H](N)C(=O)O; X1 = CCCCCCCCCc1ccc(C(=O)*)cc1

What was measured:
HeLa cells = experiment: MTT cell viability assay, HeLa; assay type: cell-based; details: no delivery agent
Procedure: (§1) Accordingly, cell viability was measured using an MTT assay to determine the anti-proliferative activity for Compounds No. 15, 16, 17, and 18 with regard to three different cell types (HeLa, PC-3, and A549). The cells utilized were chosen due to reported synthetic lethal interactions with PLK1 inhibition

PC-3 cells = experiment: MTT cell viability assay, PC-3; assay type: cell-based; details: PC-3, PTEN deficient prostate cancer, no delivery agent
Procedure: as §1

A549 cells = experiment: MTT cell viability assay, A549; assay type: cell-based; details: A549, Kras mutant lung cancer, no delivery agent
Procedure: as §1

[1] = test system: RPE cells expressing PLK1 C67V mutant; assay type: cell-based; details: for sensitivity of RPE cells to FLIPs, in words: FIG. 8
PLK1 PBD = PLK1 PBD (Homo sapiens, UniProt P53350); experiment: Fluorescence polarization competitive binding assay, PLK1 PBD
Procedure: (§2) According to the assay, binding of a fluorescent tracer peptide to a protein increased polarization of the emitted fluorescence. […] The ability of test molecules to bind to the PBD was quantitated by a reduction in mP values that occurred as the tracer was displaced from the PBD, and plotted to calculate as an IC50 value.
(§3) The affinities of the peptides for PLK1 and PLK3 were measured by plotting the loss of polarization against increasing concentration of competitor peptide through use of an optimized assay and selectivity determination.

PLK3 PBD = biological target: T1, PLK3 PBD (Homo sapiens, UniProt Q9H4B4); experiment: Fluorescence polarization competitive binding assay, PLK3 PBD
T1 construct: A similar assay format was developed for the PLK3 PBD
T1 sequence (Q9H4B4 335-646 limits assumed): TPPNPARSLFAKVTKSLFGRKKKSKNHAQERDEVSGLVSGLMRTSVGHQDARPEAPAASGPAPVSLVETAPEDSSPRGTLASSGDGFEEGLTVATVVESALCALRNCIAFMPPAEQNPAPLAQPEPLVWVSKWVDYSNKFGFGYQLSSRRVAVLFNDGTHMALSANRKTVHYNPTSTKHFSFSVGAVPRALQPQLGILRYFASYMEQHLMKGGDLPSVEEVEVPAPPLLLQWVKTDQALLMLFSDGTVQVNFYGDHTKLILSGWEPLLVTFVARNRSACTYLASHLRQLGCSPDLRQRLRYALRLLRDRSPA
Procedure: (§4) The binding of fluorescein-labelled tracer peptides used for both assays was determined to see if there was a difference in affinity for their respective PBD. A titration curve for each tracer/PLK PBD complex was generated to determine Kd values for each and therefore compare the relative binding affinities.
as §3

PC3 cells = experiment: Cell cycle analysis of serum-starved PC3 cells; assay type: cell-based; details: 200 μM, 24 hours, PC3 synchronized by serum starvation; mock 19.9%
Procedure: To examine the cellular phenotype of PLK1 inhibition through the Polo-box domain, PC3 cells synchronized in G1 through serum starvation were treated with Compound No. 16. Cells were synchronized by serum starvation for 24 hours prior to treatment. Untreated cells were serum starved and then released into drug-free media for 24 hours (left panel) as control. Sample cells were serum starved and then treated with 200 μM Compound No. 16 for 24 hours (right panel).

[2] = test system: RPE cells expressing wild-type PLK1; assay type: cell-based; details: read-out: growth inhibition, RPE cells expressing wild-type PLK1
[3] = test system: BubR1 phosphorylation in PC-3 cells; experiment: Immunoblotting for BubR1 phosphorylation and pHH3 in PC-3 cells; assay type: cell-based; details: 5-30 μM, 23 hours
Procedure: To measure the PLK1 inhibitory activity of the FLIPs in cells, phosphorylation of the mitotic protein BubR1 was measured. PC-3 cells were serum starved for 72 h and released from the G1-S boundary. 16 h after released, cells were arrested at prometaphase by treatment with 100 ng/ml Colcemid or treated with 50 nM BI2536 PLK1 kinase inhibitor or 5-30 μM of Compound No. 18 for 23 hours. Cells were trypsinized and whole cell lysate was prepared. The obtained total cell lysate was subjected to immunoblotting with anti-BubR1 (top panel, FIG. 9), anti-β tubulin (middle panel, FIG. 9), and anti-pHH3 (bottom panel, FIG. 9).

[4] = biological target: polo-box domain (PBD) of polo-like kinase 1 (PLK1) (UniProt P53350); experiment: fluorescence polarization competition on PLK1 PBD
[5] = biological target: polo-box domain (PBD) of polo-like kinase 3 (PLK3) (UniProt Q9H4B4); experiment: fluorescence polarization competition on PLK3 PBD
[6] = biological target: polo-box domain (PBD) of polo-like kinase 1 (PLK1) (UniProt P53350); experiment: from FP IC50s, (IC50 PLK3 PBD/IC50 PLK1 PBD)x5; PLK1 PBD against PLK3 PBD
[7] = biological target: T2, polo-box domain (PBD) of polo-like kinase 3 (PLK3) (UniProt Q9H4B4 335-646, limits assumed); experiment: fluorescence polarization titration of tracer with PLK3 PBD
T2 construct: domain: polo-box domain (PBD); also called PLK3 PBD; PBD of PLK3
T2 sequence (looked up): T1 sequence (Q9H4B4 335-646 limits assumed)
Procedure: as §2, with “IC₅₀” for “IC50”
as §4

[8] = biological target: polo-like kinase 1 (PLK1), wild type, in cells (UniProt P53350 2-603, limits assumed); experiment: cell-based or functional assay
[9] = biological target: polo-box domain (PBD) of polo-like kinase 1 (PLK1) (UniProt P53350); experiment: from FP IC50s; PLK1 PBD against PLK3 PBD
[10] = biological target: polo-box domain (PBD) of polo-like kinase 1 (PLK1) (UniProt P53350); experiment: fluorescence polarization competition, displacement of tracer peptide from PLK1 PBD
[11] = biological target: polo-box domain (PBD) of polo-like kinase 3 (PLK3) (UniProt Q9H4B4); experiment: fluorescence polarization competition, displacement of tracer peptide from PLK3 PBD
[12] = biological target: T3, polo-box domain (PBD) of polo-like kinase 1 (PLK1) (UniProt P53350 367-603, limits assumed); experiment: fluorescence polarization competition on PLK1 PBD
T3 construct: domain: polo-box domain (PBD); the background speaks of the four known human PLKs and the residue numbers (L491) fit human PLK1; also called PLK1 PBD; PBD of PLK1

[13] = biological target: T3, polo-box domain (PBD) of polo-like …; experiment: fluorescence polarization competition, displacement of tracer peptide from PLK1 PBD
Source text: as §2, with “IC₅₀” for “IC50”

[14] = biological target: T2, polo-box domain (PBD) of polo-like …; experiment: fluorescence polarization competition, displacement of tracer peptide from PLK3 PBD
Procedure: as §2, with “IC₅₀” for “IC50”
as §4, §3

polo-like kinase 1 (PLK1), wild type, in cells, sequence (P53350 2-603 limits assumed): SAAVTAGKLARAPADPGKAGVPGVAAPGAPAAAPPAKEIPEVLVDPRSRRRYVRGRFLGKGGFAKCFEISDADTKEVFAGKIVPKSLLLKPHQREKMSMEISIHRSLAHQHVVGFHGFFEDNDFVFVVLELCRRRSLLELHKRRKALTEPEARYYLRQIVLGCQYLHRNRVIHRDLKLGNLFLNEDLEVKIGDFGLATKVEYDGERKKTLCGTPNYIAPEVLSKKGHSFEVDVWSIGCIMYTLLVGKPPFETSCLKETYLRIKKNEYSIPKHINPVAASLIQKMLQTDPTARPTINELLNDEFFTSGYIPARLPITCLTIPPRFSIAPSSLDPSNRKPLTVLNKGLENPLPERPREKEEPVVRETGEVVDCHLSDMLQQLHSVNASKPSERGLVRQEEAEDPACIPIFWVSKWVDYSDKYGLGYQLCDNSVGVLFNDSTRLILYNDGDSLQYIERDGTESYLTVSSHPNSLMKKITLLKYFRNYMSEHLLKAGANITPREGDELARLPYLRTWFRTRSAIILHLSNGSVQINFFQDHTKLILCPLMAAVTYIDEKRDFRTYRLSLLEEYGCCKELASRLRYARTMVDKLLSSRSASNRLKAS
polo-box domain (PBD) of polo-like kinase 1 (PLK1) (UniProt P53350), sequence (P53350 367-603 limits assumed): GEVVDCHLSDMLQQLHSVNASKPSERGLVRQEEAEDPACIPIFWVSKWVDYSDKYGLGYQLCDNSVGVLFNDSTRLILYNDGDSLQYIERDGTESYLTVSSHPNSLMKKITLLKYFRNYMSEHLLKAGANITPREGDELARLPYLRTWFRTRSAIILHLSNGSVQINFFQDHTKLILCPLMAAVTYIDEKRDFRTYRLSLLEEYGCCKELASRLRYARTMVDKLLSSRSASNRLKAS
T3 sequence (P53350 367-603 limits assumed): as above
PLK1 PBD, sequence (P53350 367-603 limits assumed): as above

CCCCCCCCc1ccc(C(=O)N[C@@H](CO)C(=O)N[C@H](C(=O)N[C@@H](C)C(=O)N[C@H](C(=O)O)[C@@H](C)CC)[C@@H](C)OP(=O)(O)O)cc1 [Compound 15] ({Benzoyl(4-octyl)}-S[pT]AI-OH; C-terminus assumed)
IC50 (HeLa cells): 128 µM | IC50 (PC-3 cells): 55.7 µM | IC50 (A549 cells): 79.5 µM | sensitivity of RPE cells to FLIPs, in words [1]: sensitive

CCCCCCCCc1ccc(C(=O)N[C@@H](CO)C(=O)N[C@H](C(=O)N2CCC[C@H]2C(=O)N[C@@H](CC(C)C)C(=O)O)[C@@H](C)OP(=O)(O)O)cc1 [Compound 16] ({Benzoyl(4-octyl)}-S[pT]PL-OH; C-terminus assumed)
fold reduction of PLK1 PBD binding relative to parent compound (PLK1 PBD): 3-4 fold | fold reduction of PLK3 PBD binding relative to parent compound (PLK3 PBD): 3-4 fold | IC50 (PLK3 PBD; competition with fluorescent tracer peptide, read-out: PLK3 PBD FP IC50): 620 ± 72.5 µM | accumulation in G2/M (PC3 cells): 53% | IC50 [2]: 158 µM | IC50 ([1]; C67V mutant PLK1, read-out: growth inhibition, RPE cells expressing PLK1 C67V mutant): 86.8 µM | sensitivity of RPE cells to FLIPs, in words [1]: sensitive

CCCCCCCCCc1ccc(C(=O)N[C@@H](CO)C(=O)N[C@H](C(=O)N[C@@H](C)C(=O)N[C@H](C(N)=O)[C@@H](C)CC)[C@@H](C)OP(=O)(O)O)cc1 [Compound 18] (X1-S[pT]AI-NH2; N-terminus assumed)
BubR1 phosphorylation (anti-BubR1 immunoblot) [3]: inhibited the BubR1 phosphorylation | mitotic block (anti-pHH3 immunoblot) [3]: blocked the cells at mitosis

GPLATS[pT]PNGL (SEQ ID NO: 8)
fold reduction of affinity against the PLK3 consensus peptide (SEQ ID NO: 7) [4]: 2 fold | fold reduction of affinity against the PLK3 consensus peptide (SEQ ID NO: 7) [5]: 3 fold | Selectivity Index [6]: 2860

B1: PLK3 binding tracer (fluorescein-labelled SEQ ID NO: 7) (peptide)
peptide: GPLATS[pT]PKNG
modifications: also: fluorescein-labelled, site not given here
notes: also called PLK3 tracer; fluorescein-labelled tracer for the PLK3 PBD
Kd [7]: 0.0272 µM

{Benzoyl(4-octyl)}-S[pT]PL [Compound No. 16, 4-octyl S[pT]PL (SEQ ID NO: 14)]
MTT IC50 [µM] A549 [8]: 160 µM | MTT IC50 [µM] HeLa [8]: 142 µM | MTT IC50 [µM] PC-3 [8]: 103 µM | Selectivity Index [9]: 2580 | fold weaker affinity against Compound No. 15 [4]: 3 to 4 fold | fold weaker affinity against Compound No. 15 [5]: 3 to 4 fold | IC50 [10]: 1.2 µM

B2: Compound No. 17, 4-octyl S[pT]AI (SEQ ID NO: 13), R1 group on the C-terminal (peptide)
peptide: S[pT]AI
modifications: also: 4-octyl R1 group on C-terminus, 'C-terminal amidated octyl', terminal chemistry unclear
MTT IC50 [µM] HeLa [8]: 38.9 µM | MTT IC50 [µM] PC-3 [8]: 41.5 µM | Selectivity Index [9]: 79 | IC50 [10]: 1.49 µM | IC50 [11]: 117 µM

{4‑(propylamino)benzoyl}-S[pT]PNGL (also: further groups not given here, see m14; also called Compound No. 9) [Compound #9, propylamino FLIP (R1 = NCH2CH2CH3)]
fold increase of activity against Compound #8 [12]: > 2 fold | IC50 [13]: 5.4 µM

LLCS[pT]PNGL (also called native Cdc25C peptide) [Cdc25C PBD substrate peptide LLCS[pT]PNGL (SEQ ID NO: 1)]
Selectivity Index [6]: > 17000 | IC50 [10]: 0.17 µM | IC50 [14]: > 600 µM

B3: Compound No. 18, 4-nonyl S[pT]AI (SEQ ID NO: 13), R1 group on the C-terminal (peptide)
peptide: S[pT]AI
modifications: also: 4-nonyl R1 group on C-terminus, 'C-terminal amidated nonyl', terminal chemistry unclear
MTT IC50 [µM] HeLa [8]: 38.2 µM | MTT IC50 [µM] PC-3 [8]: 27 µM | Selectivity Index [9]: 78 | IC50 [10]: 1.23 µM | IC50 [11]: 95.9 µM
